Test results reported in patent US8541373B2, “BChE albumin fusions for the treatment of cocaine abuse” (priority 2009, dated 2013).
“And” between values parts separate entries of the source, which are not always exact repeats. Identical values can stand only once. Like-named read-outs stand apart in the source and are kept apart here.

Legend:
[1] = rats, i.v. injection, cited from earlier work
[2] = AlbuBChE serum pharmacokinetics after single IM dose (ELISA); details: for tmax: group value
Protocol: The study included a total of 11 naïve, adult male cynomolgus monkeys divided into four dose groups: • a control group of two cynomologus monkeys that only received a single IV dose of cocaine; • three dose groups that were treated with a single IM dose of AlbuBChE at 0.2, 1 or 5 mg/kg. Three naïve, adult male cynomolgus monkeys were used in each dose group. Following AlbuBChE treatment, a 1 mg/kg IV dose of cocaine was administered at 2, 48, 96, 120, and 240 hours after AlbuBChE dose administration.
A single intramuscular (IM) administration of AlbuBChE was administered on study day 1 and blood was collected at the time points outlined in Table 2. Approximately 0.5 mL of whole blood was collected from the femoral vein into serum separate tubes (SST).
Blocking is done with 2% Casein in 1×PBS, 200 μL/well, 2 hours at room temperature. After washing, 100 μL of diluted serum samples are added to the plates along with standards. Standards are generated through 3.64 fold, serial dilution of AlbuBChE from 2000 to 3.1 ng/mL. Serum samples and standards are maintained at 10% serum by dilution with buffer containing pooled cynomolgus monkey serum. A wash step precedes detection with 100 μL of anti-HSA mAb-6502-HRP at 0.04 μg/mL for 1 hour. Wells are washed again, prior to developing with 100 μl of TMB substrate. After 15 minutes, the reaction is terminated with 100 μL/well of 1N H2SO4 and read on SpectraMax plate reader at 450/570 nm. Values for unknown serum samples are calculated by interpolation of standard curve generated by 4-parameter fit of AlbuBChE standards. The limit of quantitation in cynomolgus serum was 21.1 ng/mL.
AlbuBChE pharmacokinetic parameter values were determined using serum concentration-time profiles for individual animals. The computer software WinNonlin Professional (Version 4.0.1 Pharsight Corporation, USA) was used. Specifically the model for non-compartmental analysis with extravascular input was applied. If there were fewer than 3 data points in the terminal phase of the serum concentration curve, a terminal phase half-life and PK parameters derived from the half-life were not calculated for that profile. Parameters analyzed include tmax, Cmax, t1/2, AUC(0-t) and AUC(0-∞) were calculated.

## AlbuBChE
[1]
  Plasma half-life: approximately 8 hours
[1]; listed as BChE-albumin fusion
  Plasma half-life: 8 h
[2]; 0.2 mg/kg IM
  AUC % Extrap, individual animals: 19.3% and 18.8% and 14.1%
  AUC(0-t), individual animals: 2746 ng·h/mL and 7878 ng·h/mL and 8479 ng·h/mL
  AUC(0-∞), individual animals: 3404 ng·h/mL and 9704 ng·h/mL and 9867 ng·h/mL
  Cmax, individual animals: 176 ng/mL and 279 ng/mL and 281 ng/mL
  Dose Normalized AUC(0-∞): 38292
  Dose Normalized Cmax: 1226
  Mean AUC % Extrap: 17.4%
  Mean AUC(0-t): 6368 ng·h/mL
  Mean AUC(0-∞): 7658 ng·h/mL
  Mean Cmax: 245 ng/mL
  Mean t½: 27.2 h
  Tmax, individual animals: 3 h
  t½, individual animals: 15.3 h and 42.1 h and 24.4 h
  tmax: 3 h
[2]; 0.2 mg/kg IM, 1 hr post dose
  AlbuBChE serum concentration, individual animals: 37.1 ng/mL and 235.4 ng/mL and 111.0 ng/mL
  Mean AlbuBChE serum concentration: 128 ng/mL
[2]; 0.2 mg/kg IM, 3 hr post dose
  AlbuBChE serum concentration, individual animals: 176.1 ng/mL and 278.5 ng/mL and 280.7 ng/mL
  Mean AlbuBChE serum concentration: 245 ng/mL
[2]; 0.2 mg/kg IM, 6 hr post dose
  AlbuBChE serum concentration, individual animals: 144.0 ng/mL and 212.1 ng/mL and 272.4 ng/mL
  Mean AlbuBChE serum concentration: 210 ng/mL
[2]; 0.2 mg/kg IM, 12 hr post dose
  AlbuBChE serum concentration, individual animals: 88.4 ng/mL and 143.1 ng/mL and 197.9 ng/mL
  Mean AlbuBChE serum concentration: 143 ng/mL
[2]; 0.2 mg/kg IM, 24 hr post dose
  AlbuBChE serum concentration, individual animals: 52.3 ng/mL and 95.2 ng/mL and 135.7 ng/mL
  Mean AlbuBChE serum concentration: 94.4 ng/mL
[2]; 0.2 mg/kg IM, 36 hr post dose
  AlbuBChE serum concentration, individual animals: 29.8 ng/mL and 68.3 ng/mL and 87.4 ng/mL
  Mean AlbuBChE serum concentration: 61.8 ng/mL
[2]; 0.2 mg/kg IM, 48 hr post dose
  AlbuBChE serum concentration, individual animals: <LLOQ and 66.4 ng/mL and 80.7 ng/mL
  Mean AlbuBChE serum concentration: 73.6 ng/mL
[2]; 0.2 mg/kg IM, 72 hr post dose
  AlbuBChE serum concentration, individual animals: <LLOQ and 44.5 ng/mL and 39.5 ng/mL
  Mean AlbuBChE serum concentration: 42.0 ng/mL
[2]; 0.2 mg/kg IM, 96 hr post dose
  AlbuBChE serum concentration, individual animals: <LLOQ (2×) and 30.1 ng/mL
  Mean AlbuBChE serum concentration: <LLOQ
[2]; 0.2 mg/kg IM, 128 hr post dose
  AlbuBChE serum concentration, individual animals: <LLOQ
  Mean AlbuBChE serum concentration: <LLOQ
[2]; 0.2 mg/kg IM, 144 hr post dose
  AlbuBChE serum concentration, individual animals: <LLOQ
  Mean AlbuBChE serum concentration: <LLOQ
[2]; 0.2 mg/kg IM, 168 hr post dose
  AlbuBChE serum concentration, individual animals: <LLOQ
  Mean AlbuBChE serum concentration: <LLOQ
[2]; 0.2 mg/kg IM, 216 hr post dose
  AlbuBChE serum concentration, individual animals: <LLOQ
  Mean AlbuBChE serum concentration: <LLOQ
[2]; 0.2 mg/kg IM, 264 hr post dose
  AlbuBChE serum concentration, individual animals: <LLOQ
  Mean AlbuBChE serum concentration: <LLOQ
[2]; 1 mg/kg IM
  AUC % Extrap, individual animals: 2.54% and 3.67% and 2.90%
  AUC(0-t), individual animals: 43128 ng·h/mL and 51298 ng·h/mL and 46185 ng·h/mL
  AUC(0-∞), individual animals: 44251 ng·h/mL and 53255 ng·h/mL and 47564 ng·h/mL
  Cmax, individual animals: 1666 ng/mL and 1374 ng/mL and 1956 ng/mL
  Tmax, individual animals: 3 h
  t½, individual animals: 28.4 h and 34.3 h and 30.3 h
[2]; 1.0 mg/kg IM
  Dose Normalized AUC(0-∞): 48357
  Dose Normalized Cmax: 1665
  Mean AUC % Extrap: 3.04%
  Mean AUC(0-t): 46871 ng·h/mL
  Mean AUC(0-∞): 48357 ng·h/mL
  Mean Cmax: 1665 ng/mL
  Mean t½: 31 h
  tmax: 3 h
[2]; 1.0 mg/kg IM, 1 hr post dose
  AlbuBChE serum concentration, individual animals: 1058.9 ng/mL and 462.4 ng/mL and 1598.6 ng/mL
  Mean AlbuBChE serum concentration: 1040 ng/mL
[2]; 1.0 mg/kg IM, 3 hr post dose
  AlbuBChE serum concentration, individual animals: 1665.5 ng/mL and 1374.0 ng/mL and 1956.0 ng/mL
  Mean AlbuBChE serum concentration: 1665 ng/mL
[2]; 1.0 mg/kg IM, 6 hr post dose
  AlbuBChE serum concentration, individual animals: 1269.3 ng/mL and 1266.3 ng/mL and 1596.1 ng/mL
  Mean AlbuBChE serum concentration: 1377 ng/mL
[2]; 1.0 mg/kg IM, 12 hr post dose
  AlbuBChE serum concentration, individual animals: 884.3 ng/mL and 968.1 ng/mL and 1049.5 ng/mL
  Mean AlbuBChE serum concentration: 967 ng/mL
[2]; 1.0 mg/kg IM, 24 hr post dose
  AlbuBChE serum concentration, individual animals: 630.1 ng/mL and 673.8 ng/mL and 572.1 ng/mL
  Mean AlbuBChE serum concentration: 625 ng/mL
[2]; 1.0 mg/kg IM, 36 hr post dose
  AlbuBChE serum concentration, individual animals: 373.4 ng/mL and 471.7 ng/mL and 348.2 ng/mL
  Mean AlbuBChE serum concentration: 398 ng/mL
[2]; 1.0 mg/kg IM, 48 hr post dose
  AlbuBChE serum concentration, individual animals: 289.4 ng/mL and 362.7 ng/mL and 264.4 ng/mL
  Mean AlbuBChE serum concentration: 306 ng/mL
[2]; 1.0 mg/kg IM, 72 hr post dose
  AlbuBChE serum concentration, individual animals: 122.1 ng/mL and 235.0 ng/mL and 133.0 ng/mL
  Mean AlbuBChE serum concentration: 163 ng/mL
[2]; 1.0 mg/kg IM, 96 hr post dose
  AlbuBChE serum concentration, individual animals: 87.0 ng/mL and 131.7 ng/mL and 75.3 ng/mL
  Mean AlbuBChE serum concentration: 98.0 ng/mL
[2]; 1.0 mg/kg IM, 128 hr post dose
  AlbuBChE serum concentration, individual animals: 36.2 ng/mL and 72.0 ng/mL and 38.1 ng/mL
  Mean AlbuBChE serum concentration: 48.8 ng/mL
[2]; 1.0 mg/kg IM, 144 hr post dose
  AlbuBChE serum concentration, individual animals: 27.4 ng/mL and 47.7 ng/mL and 31.5 ng/mL
  Mean AlbuBChE serum concentration: 35.5 ng/mL
[2]; 1.0 mg/kg IM, 168 hr post dose
  AlbuBChE serum concentration, individual animals: <LLOQ (2×) and 39.5 ng/mL
  Mean AlbuBChE serum concentration: <LLOQ
[2]; 1.0 mg/kg IM, 216 hr post dose
  AlbuBChE serum concentration, individual animals: <LLOQ
  Mean AlbuBChE serum concentration: <LLOQ
[2]; 1.0 mg/kg IM, 264 hr post dose
  AlbuBChE serum concentration, individual animals: <LLOQ
  Mean AlbuBChE serum concentration: <LLOQ
[2]; 5 mg/kg IM
  AUC % Extrap, individual animals: 1.86% and 0.938% and 1.85%
  AUC(0-t), individual animals: 201754 ng·h/mL and 437848 ng·h/mL and 235983 ng·h/mL
  AUC(0-∞), individual animals: 205584 ng·h/mL and 441992 ng·h/mL and 240442 ng·h/mL
  Cmax, individual animals: 6016 ng/mL and 17687 ng/mL and 6530 ng/mL
  Tmax, individual animals: 6 h
  t½, individual animals: 63.4 h and 56.4 h and 65.5 h
[2]; 5.0 mg/kg IM
  Dose Normalized AUC(0-∞): 59201
  Dose Normalized Cmax: 2016
  Mean AUC % Extrap: 1.55%
  Mean AUC(0-t): 291862 ng·h/mL
  Mean AUC(0-∞): 296006 ng·h/mL
  Mean Cmax: 10078 ng/mL
  Mean t½: 62 h and 61.8 h
  tmax: 6 h
[2]; 5.0 mg/kg IM, 1 hr post dose
  AlbuBChE serum concentration, individual animals: 2580.0 ng/mL and 6570.9 ng/mL and 3821.0 ng/mL
  Mean AlbuBChE serum concentration: 4324 ng/mL
[2]; 5.0 mg/kg IM, 3 hr post dose
  AlbuBChE serum concentration, individual animals: 4899.0 ng/mL and 12683.9 ng/mL and 6024.0 ng/mL
  Mean AlbuBChE serum concentration: 7869 ng/mL
[2]; 5.0 mg/kg IM, 6 hr post dose
  AlbuBChE serum concentration, individual animals: 6016.0 ng/mL and 17686.8 ng/mL and 6530.3 ng/mL
  Mean AlbuBChE serum concentration: 10078 ng/mL
[2]; 5.0 mg/kg IM, 12 hr post dose
  AlbuBChE serum concentration, individual animals: 4178.0 ng/mL and 11105.8 ng/mL and 5091.0 ng/mL
  Mean AlbuBChE serum concentration: 6792 ng/mL
[2]; 5.0 mg/kg IM, 24 hr post dose
  AlbuBChE serum concentration, individual animals: 2836.0 ng/mL and 5034.0 ng/mL and 3325.0 ng/mL
  Mean AlbuBChE serum concentration: 3732 ng/mL
[2]; 5.0 mg/kg IM, 36 hr post dose
  AlbuBChE serum concentration, individual animals: 1572.0 ng/mL and 2929.0 ng/mL and 1901.0 ng/mL
  Mean AlbuBChE serum concentration: 2134 ng/mL
[2]; 5.0 mg/kg IM, 48 hr post dose
  AlbuBChE serum concentration, individual animals: 1329.7 ng/mL and 2644.4 ng/mL and 1604.9 ng/mL
  Mean AlbuBChE serum concentration: 1860 ng/mL
[2]; 5.0 mg/kg IM, 72 hr post dose
  AlbuBChE serum concentration, individual animals: 637.7 ng/mL and 1190.8 ng/mL and 723.6 ng/mL
  Mean AlbuBChE serum concentration: 851 ng/mL
[2]; 5.0 mg/kg IM, 96 hr post dose
  AlbuBChE serum concentration, individual animals: 415.1 ng/mL and 732.6 ng/mL and 454.7 ng/mL
  Mean AlbuBChE serum concentration: 534.1 ng/mL and 534 ng/mL
[2]; 5.0 mg/kg IM, 128 hr post dose
  AlbuBChE serum concentration, individual animals: 217.2 ng/mL and 325.9 ng/mL and 224.3 ng/mL
  Mean AlbuBChE serum concentration: 255.8 ng/mL and 256 ng/mL
[2]; 5.0 mg/kg IM, 144 hr post dose
  AlbuBChE serum concentration, individual animals: 158.4 ng/mL and 254.7 ng/mL and 163.3 ng/mL
  Mean AlbuBChE serum concentration: 192.1 ng/mL and 192 ng/mL
[2]; 5.0 mg/kg IM, 168 hr post dose
  AlbuBChE serum concentration, individual animals: 118.9 ng/mL and 165.5 ng/mL and 130.4 ng/mL
  Mean AlbuBChE serum concentration: 138.3 ng/mL and 138 ng/mL
[2]; 5.0 mg/kg IM, 216 hr post dose
  AlbuBChE serum concentration, individual animals: 73.7 ng/mL and 91.6 ng/mL and 79.4 ng/mL
  Mean AlbuBChE serum concentration: 81.6 ng/mL
[2]; 5.0 mg/kg IM, 264 hr post dose
  AlbuBChE serum concentration, individual animals: 41.9 ng/mL and 50.9 ng/mL and 47.2 ng/mL
  Mean AlbuBChE serum concentration: 46.7 ng/mL
